T1: Mouse CD79A+CD79B antigen (mouse) (UniProt P11911)
T1 sequence (looked up) 1: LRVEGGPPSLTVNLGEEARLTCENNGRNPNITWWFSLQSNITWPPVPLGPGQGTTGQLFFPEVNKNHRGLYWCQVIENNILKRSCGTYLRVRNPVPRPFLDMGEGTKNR
T1 sequence (looked up) 2: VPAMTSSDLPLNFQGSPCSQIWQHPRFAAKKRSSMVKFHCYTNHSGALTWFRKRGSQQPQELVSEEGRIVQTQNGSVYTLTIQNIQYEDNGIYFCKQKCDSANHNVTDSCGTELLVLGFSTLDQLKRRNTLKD

T2: human CD79B antigen (a full-length protein containing signal peptide, UniProt ID: P40259) on cells (human, UniProt P40259 29-229)
T2 construct: whole, on cells; Used for the flow cytometry on transfected HEK-293T cells; F2A residues left at the C-terminus after cleavage are not described; also called CD79B-GFP molecule; HEK-293T cells overexpressing the CD79B-GFP molecule
T2 sequence (looked up): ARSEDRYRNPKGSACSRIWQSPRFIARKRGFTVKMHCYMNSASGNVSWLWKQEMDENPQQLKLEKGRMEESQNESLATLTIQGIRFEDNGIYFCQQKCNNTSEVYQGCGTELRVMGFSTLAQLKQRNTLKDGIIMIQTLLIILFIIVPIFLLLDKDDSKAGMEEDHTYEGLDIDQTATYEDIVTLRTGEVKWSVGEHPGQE

T3: Mouse CD79B antigen (mouse, UniProt P15530 26-158, limits assumed)
T3 sequence (looked up): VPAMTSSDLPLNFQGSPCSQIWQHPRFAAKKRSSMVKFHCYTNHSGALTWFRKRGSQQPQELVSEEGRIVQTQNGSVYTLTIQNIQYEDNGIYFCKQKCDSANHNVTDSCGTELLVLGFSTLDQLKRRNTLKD


What was measured:
[1] = target: Human CD79B Protein, His Tag (MALS verified), Cat. No. #CDB-H52H3-1mg, ACRO (human) (UniProt P40259); test: ELISA on coated antigen, anti-myc detection; 20ng antibody added
[2] = target: T1, Mouse CD79A+CD79B antigen (mouse); test: as above
[3] = target: Human CD79A+CD79B antigen (human) (UniProt P11912); test: as above
Target sequence in this assay (P11912 33-143 limits assumed, chain 1 of 2, one chain of several): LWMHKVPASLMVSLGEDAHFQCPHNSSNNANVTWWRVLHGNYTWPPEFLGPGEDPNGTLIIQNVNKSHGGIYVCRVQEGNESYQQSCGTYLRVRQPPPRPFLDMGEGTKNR

BSA [4] = target: BSA (UniProt P02769); test: ELISA on coated BSA control, anti-myc detection; 20ug antibody added
[5] = target: Human CD79B Protein, His Tag (MALS verified), Cat. No. #CDB-H52H3-1mg, ACRO (human) (UniProt P40259); test: ELISA on coated antigen, anti-myc detection; 2ng antibody added
[6] = target: T1, Mouse CD79A+CD79B antigen (mouse); test: as above
[7] = target: Human CD79A+CD79B antigen (human) (UniProt P11912); test: as above
BSA [8] = target: BSA (UniProt P02769); test: ELISA on coated BSA control, anti-myc detection; 200pg antibody added
[9] = target: Human CD79B Protein, His Tag (MALS verified), Cat. No. #CDB-H52H3-1mg, ACRO (human) (UniProt P40259); test: ELISA on coated antigen, anti-myc detection; 200pg antibody added
[10] = target: T1, Mouse CD79A+CD79B antigen (mouse); test: as above
[11] = target: Human CD79A+CD79B antigen (human) (UniProt P11912); test: as above
Target sequence in this assay (P11912 33-143 limits assumed, chain 1 of 2, one chain of several): as above

BSA [12] = target: BSA (UniProt P02769); test: ELISA on coated BSA control, anti-myc detection; 20ng antibody added
BSA [13] = target: BSA (UniProt P02769); test: ELISA on coated BSA control, anti-myc detection; 2ug antibody added
[14] = target: Human CD79B Protein, His Tag (MALS verified), Cat. No. #CDB-H52H3-1mg, ACRO (human) (UniProt P40259); test: ELISA on coated antigen, anti-myc detection; 20ug antibody added
[15] = target: T1, Mouse CD79A+CD79B antigen (mouse); test: as above
[16] = target: Human CD79A+CD79B antigen (human) (UniProt P11912); test: as above
Target sequence in this assay (P11912 33-143 limits assumed, chain 1 of 2, one chain of several): as above

[17] = target: Human CD79B Protein, His Tag (MALS verified), Cat. No. #CDB-H52H3-1mg, ACRO (human) (UniProt P40259); test: ELISA on coated antigen, anti-myc detection; 200ng antibody added
[18] = target: T1, Mouse CD79A+CD79B antigen (mouse); test: as above
[19] = target: Human CD79A+CD79B antigen (human) (UniProt P11912); test: as above
Target sequence in this assay (P11912 33-143 limits assumed, chain 1 of 2, one chain of several): as above

[20] = target: T2, human CD79B antigen (a full-length …); test: flow cytometry on HEK-293T cells overexpressing CD79B-GFP, 0.1 mg/mL, APC-His tag antibody
BSA [21] = target: BSA (UniProt P02769); test: ELISA on coated BSA control, anti-myc detection; 200ng antibody added
[22] = target: Human CD79B Protein, His Tag (MALS verified), Cat. No. #CDB-H52H3-1mg, ACRO (human) (UniProt P40259); test: ELISA on coated antigen, anti-myc detection; 2ug antibody added
[23] = target: T1, Mouse CD79A+CD79B antigen (mouse); test: as above
[24] = target: Human CD79A+CD79B antigen (human) (UniProt P11912); test: as above
Target sequence in this assay (P11912 33-143 limits assumed, chain 1 of 2, one chain of several): as above

Mouse CD79B antigen [25] = target: T3, Mouse CD79B antigen; test: ELISA on coated antigen, anti-myc detection
BSA [26] = target: BSA (UniProt P02769); test: ELISA on coated BSA control, anti-myc detection; 2ng antibody added
Mouse CD79B antigen [27] = target: T3, Mouse CD79B antigen; test: ELISA on coated antigen, anti-myc detection; 20ng antibody added
Mouse CD79B antigen [28] = target: T3, Mouse CD79B antigen; test: ELISA on coated antigen, anti-myc detection; 2ng antibody added
Mouse CD79B antigen [29] = target: T3, Mouse CD79B antigen; test: ELISA on coated antigen, anti-myc detection; 200pg antibody added
Mouse CD79B antigen [30] = target: T3, Mouse CD79B antigen; test: ELISA on coated antigen, anti-myc detection; 20ug antibody added
Mouse CD79B antigen [31] = target: T3, Mouse CD79B antigen; test: ELISA on coated antigen, anti-myc detection; 200ng antibody added
Mouse CD79B antigen [32] = target: T3, Mouse CD79B antigen; test: ELISA on coated antigen, anti-myc detection; 2ug antibody added

Sequence of BSA (P02769 25-607 limits assumed): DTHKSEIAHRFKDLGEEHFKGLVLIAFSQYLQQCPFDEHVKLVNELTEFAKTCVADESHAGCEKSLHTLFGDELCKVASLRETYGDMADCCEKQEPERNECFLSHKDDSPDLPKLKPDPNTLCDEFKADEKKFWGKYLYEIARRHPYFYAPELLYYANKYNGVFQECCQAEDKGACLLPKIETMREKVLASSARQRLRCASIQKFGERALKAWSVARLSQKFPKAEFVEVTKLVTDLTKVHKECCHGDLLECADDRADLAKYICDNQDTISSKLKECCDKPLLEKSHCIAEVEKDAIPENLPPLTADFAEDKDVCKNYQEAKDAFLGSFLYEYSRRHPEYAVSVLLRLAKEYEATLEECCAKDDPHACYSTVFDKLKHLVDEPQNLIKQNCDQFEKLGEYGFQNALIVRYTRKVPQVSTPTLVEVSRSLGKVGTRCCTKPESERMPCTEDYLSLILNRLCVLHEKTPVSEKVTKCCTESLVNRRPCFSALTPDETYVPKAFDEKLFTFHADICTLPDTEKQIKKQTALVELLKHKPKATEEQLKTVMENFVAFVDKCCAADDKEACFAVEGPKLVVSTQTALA

Binder	OD450 nm [1] [OD450]	OD450 nm [2] [OD450]	OD450 nm [3] [OD450]	OD450 nm (BSA [4]) [OD450]	OD450 nm [5] [OD450]	OD450 nm [6] [OD450]	OD450 nm [7] [OD450]	OD450 nm (BSA [8]) [OD450]	OD450 nm [9] [OD450]	OD450 nm [10] [OD450]	OD450 nm [11] [OD450]	OD450 nm (BSA [12]) [OD450]	OD450 nm (BSA [13]) [OD450]	OD450 nm [14] [OD450]	OD450 nm [15] [OD450]	OD450 nm [16] [OD450]	OD450 nm [17] [OD450]	OD450 nm [18] [OD450]	OD450 nm [19] [OD450]	OD450 nm (BSA [21]) [OD450]	other results
anti-CD79B single-domain antibody JYB4 (VHH, Alpaca VHH from a phage library; not shown: His-tag protein at the C-terminal end) VHH: DVQLQESGGGLVQPGGSLRLSCAASGFAFSLYAMSWARQAPGKGLEWVSDIYGDDDSRRNYADSVKGRFTISRDNAKNTVYLQMTNLQPEDTALYYCGKGRDGTRWSAREYEYRGQGTQVTVSS	0.15	0.0572	0.172	0.0488	0.0519	0.0574	0.063	0.0476	0.0521	0.0601	0.0577	0.0499	0.0479	0.552	0.049	0.658	0.375	0.0567	0.421	0.049	binding result [20]: binds; OD450 nm [22]: 0.485 OD450; OD450 nm [23]: 0.0549 OD450; OD450 nm [24]: 0.585 OD450; binding result (Mouse CD79B antigen [25]): no binding (tested: 20ug); OD450 nm (BSA [26]): 0.0479 OD450
anti-CD79B single-domain antibody JYB14 (VHH, Alpaca VHH from a phage library; ELISA detected with an anti-myc antibody; a myc tag is not described; not shown: His-tag protein at the C-terminal end) VHH: DVQLQESGGGLVQPGGSLSLTCTASISSLTIWVRAWHRQAPGKQRELVAAINSDGQTMYADSVKGRFTISRDNAKTTVSLQMDSLKPEDTAVYYCNVVTPNGQQYWGQGTQVTVSS	0.139	0.0578	0.116	0.0489	0.0507	0.0584	0.0603	0.0489	0.0501	0.0609	0.0561	0.0476	0.0506	0.495	0.117	0.855	0.321	0.0597	0.421	0.0493	binding result [20]: binds; OD450 nm [22]: 0.346 OD450; OD450 nm [23]: 0.0726 OD450; OD450 nm [24]: 0.634 OD450; binding result (Mouse CD79B antigen [25]): no binding (tested: 20ug); OD450 nm (BSA [26]): 0.0474 OD450
anti-CD79B single-domain antibody JYB8 (VHH, not shown: small tags and cut ends) VHH: DVQLQESGGGLMQPGGSLSLTCTASISSLSIWVRAWHRQAPGKQRELVAAINSDGQTMYADSVKGRFTISRDSAKTTVSLQMDSLKPEDTAVYYCNVVTPKGQQYWGQGTQVTVSS	0.145	0.0553	0.115	0.0537	0.06	0.0543	0.0544	0.0534	0.0418	0.0619	0.0521	0.0554	0.0582	0.596	0.356	0.922	0.308	0.068	1.43	0.052	OD450 nm (Mouse CD79B antigen [27]): 0.0551 OD450; OD450 nm (Mouse CD79B antigen [28]): 0.0512 OD450; OD450 nm (Mouse CD79B antigen [29]): 0.0485 OD450; OD450 nm (Mouse CD79B antigen [30]): 0.229 OD450; OD450 nm (Mouse CD79B antigen [31]): 0.0622 OD450; OD450 nm [22]: 0.506 OD450; OD450 nm [23]: 0.206 OD450; OD450 nm (Mouse CD79B antigen [32]): 0.178 OD450; OD450 nm [24]: 0.802 OD450; OD450 nm (BSA [26]): 0.0474 OD450
anti-CD79B single-domain antibody JYB10 (VHH, Alpaca VHH from a phage library; ELISA detected with an anti-myc antibody; a myc tag is not described; not shown: His-tag protein at the C-terminal end) VHH: DVQLQESGGGLVQPGGSLSLSCAASISSSSIWVRAWHRQAPGKQRELVAAINNDGQTMYADSVKGRFTISRDNAKTTVSLQMNSLKPEDTAVYYCNVVTPKGHQYWGQGTQVTVSS	0.0739	0.0609	0.0687	0.0493	0.0517	0.0584	0.0596	0.0488	0.0496	0.0584	0.0573	0.0474	0.0482	0.285	0.126	0.816	0.144	0.0601	0.224	0.0473	OD450 nm (Mouse CD79B antigen [27]): 0.0517 OD450; OD450 nm (Mouse CD79B antigen [28]): 0.0512 OD450; OD450 nm (Mouse CD79B antigen [29]): 0.0517 OD450; OD450 nm (Mouse CD79B antigen [30]): 0.0982 OD450; OD450 nm (Mouse CD79B antigen [31]): 0.0527 OD450; binding result [20]: binds; OD450 nm [22]: 0.221 OD450; OD450 nm [23]: 0.0788 OD450; OD450 nm (Mouse CD79B antigen [32]): 0.0588 OD450; OD450 nm [24]: 0.554 OD450; OD450 nm (BSA [26]): 0.0486 OD450

From patent EP4768505A1 (Shenzhen Genocury Biotech Co., Ltd, dated 2026)
